Sequences and labels used below:
B1: Tko Spt4 (natural protein, Thermococcus kodakarensis)
chain: MAKERACRHCHYITTEDRCPVCGSRDLSDDWFDLVIVLDVESRIAKKLRESIPEAAKVPGKYAIRVR
notes: Spt4, Thermococcus kodakarensis; residues 1-3 not fitted in the map
B2: Tko Spt5 (natural protein, Thermococcus kodakarensis)
chain: MAEGKIFTVSVTVGQETTTANLIYSKAKTYNLPLYAILSPSKVKGYIFIEAPNKSAVEEAIRGIRHAKRVLPGEIPFSEIEHFLEEKPAVSGFEPGDIVELIAGPFKGEKAKVVRVDESKDEIVVELVSSVVPIPVTVRGEYVRLISKRQKE
notes: Spt5, Thermococcus kodakarensis; NGN domain and KOW domain; residues 1-3 not fitted in the map; Used as Spt4/5 (Spt4-Spt5 complex) in the biochemical assays; also called NusG/Spt5
B3: Tko FttA(H255A/H591A) (enzyme, Thermococcus kodakarensis)
chain: MIRRETFVDDILKEIREIIVQMVPREAGITDVEFEGPELVIYVKNPEAMMKDGELIKNLAKVLKKRISVRPDPDILLPPEKAEELIKQLVPPEAEITNISFDPSVGEVLIEARKPGLVIGKNGETLRLITQKVHWAPRVVRTPPIQSQTIYSIRSILQTESKDRRKFLRQVGRNIYRKSEYKSRWIRITGLGGFREVGRSALLVQTDESYVLVDFGVNIAALKDPTKAYPHFDAPEFRYVLDEGLLDAIIITHAALDHSGMLPYLFRYKLFDGPIYTTPPTRDLMTLLQQDFIEIQHMNGVEPLYRPKDIKEVIKHTITLDYGEVRDIAPDIRLTLHNAGHILGSSIVHLHIGNGLHNIAITGDFKFIPTRLFEPAVSRFPRLETLVMESTYGGSNDYQMPREEAEKRLIEVIHQTLKRGGKVLIPAMAVGRAQEIMMVLEEYARVGGIEVPIYLDGMIWEATAIHTAYPEYLSKHIREQIFHEGYNPFLNPIFKSVANSRERQDIIDSGEPAIIIATSGMLVGGPSVEYFKQLAPDPKNSIIFVSYQAEGTLGRQVQRGLREIPIVGEDGRTEVINVNMEVHTIDGFSGAADRRELMSYVARVRPRPERIITVHGEAHKCLDLSSSIHKKFGISTRAPNNLDAIRLK
notes: FttA (aCPSF, aCPSF1), Thermococcus kodakarensis; domains KH1 6-75, KH2 76-144, MβLa 198-428, βCASP 433-557, MβLb 576-639; residues 1-3 of FttA^prox not fitted in the map; Dimer in the structure (protomers FttA^prox and FttA^dist); also called FttA^prox; FttA^dist

What all share (test): cryo-EM structure; 4 μM Tko RNAP, 8 μM Spt4, 8 μM Spt5 and 5 μM nucleic acid scaffold (TEC[44] or TEC[52]) in 20 mM HEPES-NaOH pH 7.5, 30 mM KCl, 10 mM magnesium acetate, 1 mM dithiothreitol, 10 min at 22 °C; then FttA(H255A/H591A) added, 10 min at 22 °C and 5 min at 42 °C; CHAPSO added before freezing; single-particle reconstruction at 2.5 Å (TEC[44]) and 2.2 Å (TEC[52])
The data set “Tko Spt5” has as its target B2. The settings on record: both partners purified.
The target in the data set “Tko FttA(H255A/H591A)” is B3. Conditions: both partners purified.
Data set [1] concerns the molecule itself.

From paper PMC11616081, “Structural basis of archaeal FttA-dependent transcription termination” (Nature, 2024) come the findings set out here.

Broadly, the stoichiometry N is the number of molecules, sites or subunits per partner or assembly.

Regarding B1, the binding result with Tko Spt5 is recorded as “binds”. In the case of B2, the binding result in the data set with Tko FttA(H255A/H591A) is on record as “binds”. Turning to B3, in data set [1], the “stoichiometry N” value was 2.
